Where “and” joins values, the source holds several entries; their conditions need not be identical. Equal entries are not always repeated.
Tests used:
[1] = biological target: Fluos-msR4M-LS (fluorescein-labelled ECL1[97–110] and ECL2[182–196] joined only by a disulfide bridge, no synthetic linker) (human), P61073; assay: other fluorescence titration; Fluos-labelled CXCR4 ectodomain peptide at 5 nM titrated with unlabelled MIF, MIF(10xAla), CXCL12 or MIF peptide fragments; 10 mM sodium phosphate, pH 7.4, 1% HFIP; emission at 522 nm; apparent KD, 1/1 binding model; conditions: remark: other sources report otherwise
[2] = biological target: Fluos-msR4M-LS (human), P61073; assay: other fluorescence titration; 5 nM Fluos-labeled ectodomain peptide titrated with unlabeled MIF, MIF peptide or CXCL12; 10 mM sodium phosphate, pH 7.4, 1% HFIP; emission at 522 nm; apparent KD, 1/1 binding model; one constant for each of three curves; conditions: remark: other sources report otherwise

B1: macrophage migration-inhibitory factor (MIF), recombinant human, unlabelled, P14174 1-115 (natural protein)
chain: MPMFIVNTNVPRASVPDGFLSELTQQLAQATGKPPQYIAVHVVPDQLMAFGGSSEPCALCSLHSIGKIGGAQNRSYSKLLCGLLAERLRISPDRVYINYYDMNAANVGWNNSTFA
modifications: here or on the partner: disulfide bridge from Cys-109 to Cys-186 of the ECL2 chain; C-terminal amide; Fluos (fluorescein) label, chain and position not stated | disulfide bridge from Cys-186 to Cys-109 of the ECL1 chain; C-terminal amide
Kd [1]: 6.9 nM

B2: macrophage migration-inhibitory factor (MIF), recombinant human, P14174 1-115 (natural protein)
chain: MPMFIVNTNVPRASVPDGFLSELTQQLAQATGKPPQYIAVHVVPDQLMAFGGSSEPCALCSLHSIGKIGGAQNRSYSKLLCGLLAERLRISPDRVYINYYDMNAANVGWNNSTFA
modifications: here or on the partner: disulfide bridge from Cys-109 to Cys-186 of the ECL2 chain; C-terminal amide; Fluos label on the molecule (chain and position not stated) | disulfide bridge from Cys-186 to Cys-109 of the ECL1 chain; C-terminal amide
Kd [2]: 9 nM and 5 nM

Reference: paper PMC7689490, “Designed CXCR4 mimic acts as a soluble chemokine receptor that blocks atherogenic inflammation by agonist-specific targeting” (Nature Communications, 2020)
